According to patent US20230390362A1, “USE OF TRIGONAL AGONIST HAVING ACTIVITIES TO ALL OF GLUCAGON, GLP-1, AND GIP RECEPTORS IN TREATMENT OF SEQUELAE FOLLOWING RESPIRATORY INFECTIOUS DISEASES” (HANMI PHARM. CO., LTD., priority 2020, published 2023):
Positions of bridges follow the written chain, without caps; N, C: chain ends. Non-standard residues stand in square brackets, D forms with d. No end group written: not given here. *: point of attachment. Acetyl(2-(4-imidazolyl)) = O=C(Cc1c[nH]cn1)*; Aib = CC(C)(N)C(=O)O

T1: human GIP receptor (human, UniProt P48546 22-466)
T1 sequence (looked up): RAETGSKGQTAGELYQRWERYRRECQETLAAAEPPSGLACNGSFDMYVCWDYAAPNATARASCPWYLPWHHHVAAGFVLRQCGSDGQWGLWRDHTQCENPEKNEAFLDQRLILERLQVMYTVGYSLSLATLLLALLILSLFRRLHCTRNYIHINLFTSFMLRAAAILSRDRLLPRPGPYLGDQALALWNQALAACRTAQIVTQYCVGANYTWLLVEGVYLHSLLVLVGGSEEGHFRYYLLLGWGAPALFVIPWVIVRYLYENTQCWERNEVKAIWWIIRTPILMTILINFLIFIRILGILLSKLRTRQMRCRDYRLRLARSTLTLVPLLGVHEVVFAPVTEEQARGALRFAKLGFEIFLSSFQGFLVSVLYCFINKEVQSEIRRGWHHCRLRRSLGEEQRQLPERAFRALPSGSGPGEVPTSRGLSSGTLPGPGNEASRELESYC


Key:
Assay in all cases: cell-based or functional assay
[1] = biological target: human GCG receptor (human, UniProt P47871 26-477)
[2] = biological target: human GLP-1 receptor (human, UniProt P43220 24-463)
[3] = biological target: T1, human GIP receptor

Sequence of human GCG receptor (P47871 26-477): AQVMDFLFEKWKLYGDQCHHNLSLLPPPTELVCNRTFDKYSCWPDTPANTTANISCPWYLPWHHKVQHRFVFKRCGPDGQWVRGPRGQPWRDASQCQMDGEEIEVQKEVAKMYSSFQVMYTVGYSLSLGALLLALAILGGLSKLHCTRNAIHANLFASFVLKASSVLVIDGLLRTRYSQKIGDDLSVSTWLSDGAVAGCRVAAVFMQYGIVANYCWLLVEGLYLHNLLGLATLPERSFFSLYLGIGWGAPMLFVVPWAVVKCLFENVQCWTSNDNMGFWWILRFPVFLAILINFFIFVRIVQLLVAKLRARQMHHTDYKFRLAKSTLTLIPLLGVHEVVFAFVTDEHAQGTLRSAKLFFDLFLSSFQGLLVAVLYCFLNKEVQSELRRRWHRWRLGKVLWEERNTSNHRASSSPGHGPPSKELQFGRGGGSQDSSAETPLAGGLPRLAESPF

Binder	In vitro activity relative to native peptide (%), vs. Glucagon (cAMP EC50) [1] [%]	In vitro activity relative to native peptide (%), vs. GLP-1 (cAMP EC50) [2] [%]	In vitro activity relative to native peptide (%), vs. GIP (cAMP EC50) [3] [%]
H[Aib]QGTFTSDYSKYLDEKAAKEFVQWLLNTC (bridge 16-20) [trigonal agonist of SEQ ID NO: 29]	6	38.5	< 0.1
{Acetyl(2-(4-imidazolyl))}-GEGTFISDYSIQLDEIAVQDFVEWLLAQKPSSGAPPPSHG [trigonal agonist of SEQ ID NO: 13]	< 0.1	< 0.1	< 0.1
Y[Aib]QGTFTSDYSKALDEKAAKDFVNWLLDQHPSSGQPPPSC (bridge 16-20) [trigonal agonist of SEQ ID NO: 102]	29.5	23.3	58
{Acetyl(2-(4-imidazolyl))}-GQGTFTSDYSIQLDEIAVRDFVEWLKNGGPSSGAPPPSHG [trigonal agonist of SEQ ID NO: 14]	< 0.1	28	< 0.1
{Acetyl(2-(4-imidazolyl))}-GQGTFTSDLSIQYEEEAQQDFVEWLKDTGPSSGAPPPSHG [trigonal agonist of SEQ ID NO: 20]	< 0.1	< 0.1	< 0.1
{Acetyl(2-(4-imidazolyl))}-GQGTFTSDLSIQYDSEHQRDFIEWLKDTGPSSGAPPPSHG [trigonal agonist of SEQ ID NO: 19]	< 0.1	< 0.1	< 0.1
H[Aib]QGTFTSDYSIAMDEIHQKDFVNWLLAQKC (bridge 16-20) [trigonal agonist of SEQ ID NO: 33]	< 0.1	24.5	10.4
Y[Aib]QGTFTSDYSKYLDECRAKEFVQWLLDHHPSSGQPPPS (bridge 16-20) [trigonal agonist of SEQ ID NO: 21]	267	17.8	22.7
H[Aib]QGTFTSDYSKYLDEKACKEFVQWLLAQ (bridge 16-20) [trigonal agonist of SEQ ID NO: 31]	2.2	135	2.4
H[Aib]QGTFTSDYSKYLDEKACKDFVQWLLDGGPSSGAPPPS (bridge 16-20) [trigonal agonist of SEQ ID NO: 32]	1.7	151	8.8
{Acetyl(2-(4-imidazolyl))}-GQGTFTSDLSKQMDSERAREFIEWLKNTGPSSGAPPPSHG [trigonal agonist of SEQ ID NO: 18]	< 0.1	< 0.1	< 0.1
H[Aib]QGTFTSDCSKYLDERAAQDFVQWLLDGGPSSGAPPPS [trigonal agonist of SEQ ID NO: 25]	0.1	82.6	< 0.1
H[Aib]QGTFTSDYSKYLDEKAQKEFVQWLLDTC (bridge 16-20) [trigonal agonist of SEQ ID NO: 30]	0.7	142	0.8
H[Aib]QGTFTSDVSSYLDGQAQKEFIAWLVKGC [trigonal agonist of SEQ ID NO: 2]	< 0.1	5.9	< 0.1
{Acetyl(2-(4-imidazolyl))}-GQGTFTSDLSKQMDEERAREFIEWLLAQKPSSGAPPPSHG [trigonal agonist of SEQ ID NO: 17]	< 0.1	0.2	< 0.1
{Acetyl(2-(4-imidazolyl))}-GEGTFTSDLSKYLDSRRQQLFVQWLKAGGPSSGAPPPSHG [trigonal agonist of SEQ ID NO: 11]	< 0.1	1.4	< 0.1
{Acetyl(2-(4-imidazolyl))}-GEGTFISDLSKYMDEQAVQLFVEWLMAGGPSSGAPPPSHG [trigonal agonist of SEQ ID NO: 12]	< 0.1	0.4	< 0.1
Y[Aib]QGTFTSDYSKYLDECRAKEFVQWLKNGGPSSGAPPPS (bridge 16-20) [trigonal agonist of SEQ ID NO: 24]	9.3	41.2	< 0.1
Y[Aib]QGTFTSDYSKYLDECRAKEFVQWLLAQKGKKNDWKHNIT (bridge 16-20) [trigonal agonist of SEQ ID NO: 23]	9.3	4.01	< 0.1
H[Aib]QGTFTSDYSKYLDERACQDFVQWLLDQGGPSSGAPPPS [trigonal agonist of SEQ ID NO: 27]	0.8	83.1	0.9
H[Aib]QGTFTSDCSKYLDSRAAQDFVQWLLDGGPSSGAPPPS [trigonal agonist of SEQ ID NO: 26]	0.2	64.5	< 0.1
H[Aib]QGTFTSDYSKYLDEKRAQEFVCWLLAQKGKKNDWKHNIT [trigonal agonist of SEQ ID NO: 28]	1.6	17.2	< 0.1
H[Aib]QGTFTSDVSSYLLGQAAKQFIAWLVKGGGPSSGAPPPSC [trigonal agonist of SEQ ID NO: 3]	< 0.1	1.8	< 0.1
{Acetyl(2-(4-imidazolyl))}-GQGTFTSDLSKQMDSEAQQLFIEWLKNGGPSSGAPPPSHG [trigonal agonist of SEQ ID NO: 16]	< 0.1	2.1	< 0.1
Y[Aib]QGTFTSDYSKCLDEKRAKEFVQWLLDHHPSSGQPPPS (bridge 16-20) [trigonal agonist of SEQ ID NO: 22]	140	20.1	59.7
